Measurements published in patent publication US20240263160A1 (BIOMARIN PHARMACEUTICAL, published 2024).

Biological target: IGF2 receptor (cation-independent mannose-6-phosphate receptor)
Assay: IGF2 receptor binding assay; average over the BMN001 lots used in the nonclinical studies; format and competitor not described

IC50: 0.28 nM
B1: BMN001 therapeutic fusion protein (mature human Naglu fused through a rigid linker to a furin-resistant IGF-II peptide, amino acids 8-67 of mature human IGF-II … (enzyme)
chain: DEAREAAAVRALVARLLGPGPAADFSVSVERALAAKPGLDTYSLGGGGAARVRVRGSTGVAAAAGLHRYLRDFCGCHVAWSGSQLRLPRPLPAVPGELTEATPNRYRYYQNVCTQSYSFVWWDWARWEREIDWMALNGINLALAWSGQEAIWQRVYLALGLTQAEINEFFTGPAFLAWGRMGNLHTWDGPLPPSWHIKQLYLQHRVLDQMRSFGMTPVLPAFAGHVPEAVTRVFPQVNVTKMGSWGHFNCSYSCSFLLAPEDPIFPIIGSLFLRELIKEFGTDHIYGADTFNEMQPPSSEPSYLAAATTAVYEAMTAVDTEAVWLLQGWLFQHQPQFWGPAQIRAVLGAVPRGRLLVLDLFAESQPVYTRTASFQGQPFIWCMLHNFGGNHGLFGALEAVNGGPEAARLFPNSTMVGTGMAPEGISQNEVVYSLMAELGWRKDPVPDLAAWVTSFAARRYGVSHPDAGAAWRLLLRSVYNCSGEACRGHNRSPLVRRPSLQMNTSIWYNRSDVFEAWRLLLTSAPSLATSPAFRYDLLDLTRQAVQELVSLYYEEARSAYLSKELASLLRAGGVLAYELLPALDEVLASDSRFLLGSWLEQARAAAVSEAEADFYEQNSRYQLTLWGPEGNILDYANKQLAGLVANYYTPRWRLFLEALVDSVAQGIPFQQHQFDKNVFQLEQAFVLSKQRYPSQPRGDTVDLAKKIFLKYYPRWVAGSWGAPGGGSPAPAPTPAPAPTPAPAGGGPSGAPLCGGELVDTLQFVCGDRGFYFSRPASRVSARSRGIVEECCFRSCDLALLETYCATPAKSE
notes: also called Naglu/IGF-II fusion protein
